Data: PMC10783520, “Mutual promotion of co-condensation of KRAS G-quadruplex and a well-folded protein HMGB1”

Assays:
Conditions in all cases: protein: recombinant; intramolecular parallel G4, K+
[1] = target: T1, HMGB1 A box (termed HMGB1) (UniProt P09429 9-78); assay: ITC; K+; K+-containing buffer; 20 or 200 mM K+ in Fig S9 titrations (10 uM HMGB1); full buffer, pH and temperature of binding assays not in material (phase-separation assays: 10 mM HEPES pH 7.4, 20 mM K+, 10% PEG8K)
T1 sequence: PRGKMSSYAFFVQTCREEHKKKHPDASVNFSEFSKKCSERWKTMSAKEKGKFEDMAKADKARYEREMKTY

[2] = target: T1, HMGB1 A box (termed HMGB1); assay: fluorescence titration; 20 mM K+; K+-containing buffer; 20 or 200 mM K+ in Fig S9 titrations (10 uM HMGB1); full buffer, pH and temperature of binding assays not in material (phase-separation assays: 10 mM HEPES pH 7.4, 20 mM K+, 10% PEG8K)
[3] = target: T1, HMGB1 A box (termed HMGB1); assay: fluorescence titration; 200 mM K+; K+-containing buffer; 20 or 200 mM K+ in Fig S9 titrations (10 uM HMGB1); full buffer, pH and temperature of binding assays not in material (phase-separation assays: 10 mM HEPES pH 7.4, 20 mM K+, 10% PEG8K)
[4] = target: T1, HMGB1 A box (termed HMGB1); assay: fluorescence titration (intrinsic HMGB1 fluorescence, 335 nm); K+; K+-containing buffer; 20 or 200 mM K+ in Fig S9 titrations (10 uM HMGB1); full buffer, pH and temperature of binding assays not in material (phase-separation assays: 10 mM HEPES pH 7.4, 20 mM K+, 10% PEG8K)

AGGGCGGTGTGGGAAGAGGGAA (structured_DNA) [22R (GQKRAS)]
Kd [1]: 7.04 µM | Kd [2]: 3.24 µM | Kd [3]: 4.24 µM | Kd [4]: 4.08 µM
